# In article PMC5351860, “Novel fimbrilin PGN_1808 in Porphyromonas gingivalis” (PLoS ONE, 2017):
# B1: Mfa1 (Mfa1 fimbriae purified from the fimA gene-deletion mutant of P. gingivalis ATCC 33277) (natural protein)
# chain: AGDGQDQANPDYHYVGEWAGKDKIEKVSIYMVPQGGPGLVESAEDLDFGTYYENPTIDPATHNAILKPKKGIKVNSAVGKTVKVYVVLNDIAGKAKALLANVNAADFDAKFKEIIELSTQAQALGTVADGPNPATAAGKIAKKNGTTDETIMMTCLQPSDALTIEAAVSEANAIAGIKNQAKVTVERSVARAMVSTKAQSYEIKATTQIGEIAAGSVLATITDIRWVVAQGERRQYLSKKRGTVPENTWVTPGSGFVPTSSTFHTNATEYYDYAGLWEDHNTNEAVISGTQVPTLADYQLQDVTGELANALSGKFLLPNTHKSGANAASSDYKRGNTAYVLVRAKFTPKKEAFIDRGKTYSDNTAVPEYVAGEDFFVGENGQFYVSMKSVTDPKVGGVAGMKAHKYVKGKVLYYAWLNPSTTSPDSWWNSPVVRNNIYHIHIKSIKKLGFNWNPLVPDPDPSNPENPNNPDPNPDEPGTPVPTDPENPLPDQDTFMSVEVTVLPWKVHSYEVDL
# notes: source: fimA gene-deletion mutant derived from P. gingivalis ATCC 33277; fractionated by ammonium sulfate precipitation and DEAE Sepharose chromatography
# Target: the molecule itself
# Assay: SDS-PAGE after partial denaturation; fractionated fimbriae in loading buffer with 1% SDS and 0.5 M 2-mercaptoethanol heated at 37, 60 and/or 80°C for 10 min; CBB staining and western blotting
protein,measurement,value
B1,binding result,binds
